Assay results from PMC12371506 (ACS Bio & Med Chem Au, 2025).
*: point of attachment. AMC = Cc1cc(=O)oc2cc(N*)ccc12; CH2Cl = ClC*

T1: caspase-1 (Homo sapiens, UniProt P29466)
T1 sequence (P29466 120-297 limits assumed): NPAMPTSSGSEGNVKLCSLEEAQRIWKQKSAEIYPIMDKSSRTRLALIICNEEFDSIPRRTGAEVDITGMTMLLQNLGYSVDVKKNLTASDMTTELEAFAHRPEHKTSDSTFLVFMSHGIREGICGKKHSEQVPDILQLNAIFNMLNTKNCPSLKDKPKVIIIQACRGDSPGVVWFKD
T1 sequence (P29466 317-404 limits assumed): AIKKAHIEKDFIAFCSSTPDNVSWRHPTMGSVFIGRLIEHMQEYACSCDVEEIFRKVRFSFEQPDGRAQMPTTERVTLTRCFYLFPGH

T2: caspase-6 (Homo sapiens, UniProt P55212)
T2 sequence (P55212 24-179 limits assumed): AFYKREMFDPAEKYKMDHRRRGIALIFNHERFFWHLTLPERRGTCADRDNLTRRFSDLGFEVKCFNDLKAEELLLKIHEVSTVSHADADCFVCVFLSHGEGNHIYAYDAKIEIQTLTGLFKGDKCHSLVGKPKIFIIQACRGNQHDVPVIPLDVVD
T2 sequence (P55212 194-293 limits assumed): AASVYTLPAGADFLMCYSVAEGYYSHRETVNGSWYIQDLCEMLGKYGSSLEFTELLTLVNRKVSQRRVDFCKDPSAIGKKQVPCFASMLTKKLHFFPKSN

T3: caspase-9 (full-length) (Homo sapiens, UniProt P55211)
T3 sequence (P55211 1-315 limits assumed): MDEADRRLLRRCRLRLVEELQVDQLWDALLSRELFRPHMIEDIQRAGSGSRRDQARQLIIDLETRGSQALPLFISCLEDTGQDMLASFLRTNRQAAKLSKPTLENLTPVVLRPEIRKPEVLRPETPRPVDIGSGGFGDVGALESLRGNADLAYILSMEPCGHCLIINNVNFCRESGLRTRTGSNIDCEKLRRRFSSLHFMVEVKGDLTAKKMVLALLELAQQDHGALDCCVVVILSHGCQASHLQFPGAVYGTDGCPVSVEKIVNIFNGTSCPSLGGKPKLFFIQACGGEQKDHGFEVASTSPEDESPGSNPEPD
T3 sequence (P55211 331-416 limits assumed): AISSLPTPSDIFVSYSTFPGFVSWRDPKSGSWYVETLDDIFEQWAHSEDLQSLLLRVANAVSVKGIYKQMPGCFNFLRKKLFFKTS

T4: caspase-7 (Homo sapiens, UniProt P55210)
T4 sequence (P55210 24-198 limits assumed): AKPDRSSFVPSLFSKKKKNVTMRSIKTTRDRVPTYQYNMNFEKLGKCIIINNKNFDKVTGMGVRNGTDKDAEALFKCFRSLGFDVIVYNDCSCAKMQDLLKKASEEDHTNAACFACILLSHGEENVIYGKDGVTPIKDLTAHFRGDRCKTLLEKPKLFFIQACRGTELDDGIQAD
T4 sequence (P55210 207-303 limits assumed): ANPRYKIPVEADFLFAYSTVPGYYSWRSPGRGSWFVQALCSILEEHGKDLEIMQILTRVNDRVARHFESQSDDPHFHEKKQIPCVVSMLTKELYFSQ

T5: caspase-4 (Homo sapiens, UniProt P49662)
T5 sequence (P49662 81-270 limits assumed): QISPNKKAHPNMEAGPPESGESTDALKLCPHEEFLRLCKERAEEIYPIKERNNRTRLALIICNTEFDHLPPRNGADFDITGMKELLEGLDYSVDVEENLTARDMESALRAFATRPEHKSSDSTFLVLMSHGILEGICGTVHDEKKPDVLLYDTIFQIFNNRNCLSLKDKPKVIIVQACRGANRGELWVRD
T5 sequence (P49662 290-377 limits assumed): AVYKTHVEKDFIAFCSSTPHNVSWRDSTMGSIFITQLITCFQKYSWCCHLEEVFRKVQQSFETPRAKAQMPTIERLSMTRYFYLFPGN

T6: caspase-3 (Homo sapiens, UniProt P42574)
T6 sequence (P42574 29-175 limits assumed): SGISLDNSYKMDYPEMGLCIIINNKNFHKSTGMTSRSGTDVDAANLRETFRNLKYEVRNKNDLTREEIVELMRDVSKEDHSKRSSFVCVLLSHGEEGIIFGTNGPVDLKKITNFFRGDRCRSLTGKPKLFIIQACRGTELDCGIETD
T6 sequence (P42574 176-277 limits assumed): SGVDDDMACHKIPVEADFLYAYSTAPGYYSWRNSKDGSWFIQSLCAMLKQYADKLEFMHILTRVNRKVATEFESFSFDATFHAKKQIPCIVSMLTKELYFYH

T7: caspase-10 (Homo sapiens, UniProt Q92851)
T7 sequence (Q92851 220-415 limits assumed): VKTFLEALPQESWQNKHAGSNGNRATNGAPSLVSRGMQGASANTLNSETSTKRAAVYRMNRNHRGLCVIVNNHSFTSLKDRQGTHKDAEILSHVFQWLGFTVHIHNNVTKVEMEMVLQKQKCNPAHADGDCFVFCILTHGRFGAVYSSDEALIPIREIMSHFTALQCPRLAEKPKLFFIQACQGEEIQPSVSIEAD
T7 sequence (Q92851 416-521 limits assumed): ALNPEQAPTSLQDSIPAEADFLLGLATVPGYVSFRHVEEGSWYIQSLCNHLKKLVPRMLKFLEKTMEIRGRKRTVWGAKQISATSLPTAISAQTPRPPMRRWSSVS

T8: caspase-11 (Mus musculus, UniProt P70343)
T8 sequence (P70343 81-266 limits assumed): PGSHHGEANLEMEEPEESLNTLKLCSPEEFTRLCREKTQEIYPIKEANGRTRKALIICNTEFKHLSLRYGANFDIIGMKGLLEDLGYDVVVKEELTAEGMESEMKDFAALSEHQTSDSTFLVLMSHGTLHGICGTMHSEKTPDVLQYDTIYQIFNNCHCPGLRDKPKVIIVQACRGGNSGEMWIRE
T8 sequence (P70343 286-373 limits assumed): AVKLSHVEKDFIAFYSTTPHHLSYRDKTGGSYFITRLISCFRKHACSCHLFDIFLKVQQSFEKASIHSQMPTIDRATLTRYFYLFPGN

T9: caspase-5 (Homo sapiens, UniProt P51878)
T9 sequence (P51878 137-327 limits assumed): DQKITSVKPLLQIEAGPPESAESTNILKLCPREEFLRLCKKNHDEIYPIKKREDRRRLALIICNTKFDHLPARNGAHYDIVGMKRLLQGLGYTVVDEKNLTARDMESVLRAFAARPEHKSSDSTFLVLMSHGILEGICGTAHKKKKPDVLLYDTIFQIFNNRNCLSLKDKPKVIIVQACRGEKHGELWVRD
T9 sequence (P51878 347-434 limits assumed): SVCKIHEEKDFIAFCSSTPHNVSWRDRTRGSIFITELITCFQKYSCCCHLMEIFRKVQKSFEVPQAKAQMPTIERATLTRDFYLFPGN


Experiments:
[1] = molecular target: T1, caspase-1; assay: In vitro substrate kinetics, caspase-1; type: biochemical; conditions: caspase-1, 0.25 activity units/μL
[2] = molecular target: T2, caspase-6; assay: In vitro substrate kinetics, caspase-6; type: biochemical; conditions: caspase-6, 0.25 activity units/μL
[3] = molecular target: T3, caspase-9 (full-length); assay: In vitro substrate kinetics, caspase-9; conditions: caspase-9, 1 activity unit/μL, different preparation
[4] = molecular target: T4, caspase-7; assay: In vitro substrate kinetics, caspase-7; type: biochemical; conditions: caspase-7, 0.25 activity units/μL
[5] = molecular target: T5, caspase-4; assay: In vitro substrate kinetics, caspase-4; type: biochemical; conditions: caspase-4, 0.25 activity units/μL
[6] = molecular target: T6, caspase-3; assay: In vitro substrate kinetics, caspase-3; type: biochemical; conditions: caspase-3, 0.25 activity units/μL
[7] = molecular target: T7, caspase-10; assay: In vitro substrate kinetics, caspase-10; type: biochemical; conditions: for K M / Relative k cat/K M / V max: caspase-10, 0.25 activity units/μL
[8] = molecular target: caspase-8 (Homo sapiens, UniProt Q14790); assay: In vitro substrate kinetics, caspase-8; type: biochemical; conditions: for K M / Relative k cat/K M / V max: caspase-8, 0.25 activity units/μL
Sequence of caspase-8 (Q14790 217-374 limits assumed): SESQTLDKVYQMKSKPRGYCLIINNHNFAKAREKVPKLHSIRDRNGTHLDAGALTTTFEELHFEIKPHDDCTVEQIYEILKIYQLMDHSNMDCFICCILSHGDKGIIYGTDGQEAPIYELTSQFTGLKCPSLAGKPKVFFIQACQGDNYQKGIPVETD
Sequence of caspase-8 (Q14790 385-479 limits assumed): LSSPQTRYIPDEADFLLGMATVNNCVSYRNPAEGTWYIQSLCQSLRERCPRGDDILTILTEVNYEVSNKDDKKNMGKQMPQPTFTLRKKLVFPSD

[9] = molecular target: T8, caspase-11; assay: In vitro substrate kinetics, caspase-11; type: biochemical
[10] = molecular target: T9, caspase-5; assay: In vitro substrate kinetics, caspase-5; type: biochemical
[11] = molecular target: Caspase-9 (full-length) (human), (recombinant) (human) (UniProt P55211)
[12] = mouse caspase-11, 0.25 activity units/μL
[13] = caspase-5, 0.25 activity units/μL

Row | K M [1] [µM] | Relative k cat/K M [1] | V max [1] [RFU/min] | Relative k cat/K M [2] | Relative k cat/K M [3] | Relative k cat/K M [4] | K M [5] [µM] | Relative k cat/K M [5] | V max [5] [RFU/min] | Relative k cat/K M [6] | K M [7] [µM] | Relative k cat/K M [7] | V max [7] [RFU/min] | K M [8] [µM] | Relative k cat/K M [8] | V max [8] [RFU/min] | Molecule | also measured
1 | 47.5 ± 30.8 | 1.41 ± 0.43 | 44.68 ± 15.51 | 13.3 ± 2.24 | did not cleave | 561 ± 81.2 | 702 ± 76.3 | 1.27 ± 0.18 | 862.73 ± 31.55 | 482 ± 76.5 | 70.3 ± 14.6 | 7.20 ± 1.02 | 476.26 ± 38.71 | 0.75 ± 0.12 | 310 ± 60.4 | 218.27 ± 2.74 | Ac-DEVD-AMC [reference compound] | K M [2]: 35.3 ± 5.12 µM; V max [2]: 455.67 ± 64.18 RFU/min; K M [4]: 2.36 ± 0.36 µM; V max [4]: 1266.91 ± 38.79 RFU/min; K M [6]: 2.07 ± 0.36 µM; V max [6]: 940.88 ± 31.57 RFU/min
2 | 93.9 ± 6.26 | 5.01 ± 0.41 | 465.55 ± 10.25 | did not detect processing | 0.15 | did not detect processing | 1867 ± 388 | 1.44 ± 0.18 | 2546.06 ± 156.63 | did not detect processing | 87.9 ± 5.38 | 10.4 ± 1.30 | 898.63 ± 57.69 | 9.98 ± 0.37 | 59.2 ± 3.26 | 590.08 ± 30.37 | N-acetyl-Leu-Glu-Ser-Asp-aminomethylcoumarin (Ac-LESD-{AMC}; SMILES CC(=O)N[C@@H](CC(C)C)C(=O)N[C@@H](CCC(=O)O)C(=O)N[C@@H](CO)C(=O)N[C@@H](CC(=O)O)C(=O)Nc1ccc2c(C)cc(=O)oc2c1) [Ac-LESD-AMC] | K M [3]: 1513.83 ± 441.20 µM; V max [3]: 208.50 ± 45.00 RFU/min; Relative k cat/K M ([3]; listed as LESD-AMC): 0.15 ± 0.02; K M [9, 12]: 503 ± 58.4 µM; Relative k cat/K M [9, 12]: 0.42 ± 0.02; V max [9, 12]: 211.01 ± 15.01 RFU/min; fold slower cleavage by caspase-11 than by caspase-8 ([9]; relative k cat/K M): ~100 fold; catalytic efficiency within x-fold of preferred substrate Ac-WEHD-AMC ([10]; caspase-5): ≤ 5 fold; K M [10, 13]: 154 ± 13.5 µM; Relative k cat/K M [10, 13]: 4.65 ± 0.43; V max [10, 13]: 703.19 ± 24.07 RFU/min; catalytic efficiency within x-fold of preferred substrate Ac-LEHD-AMC ([7]; caspase-10): ≤ 3 fold; catalytic efficiency within x-fold of preferred substrate Ac-LEHD-AMC ([8]; caspase-8): ≤ 3 fold
3 |  |  |  |  |  |  |  |  |  |  |  |  |  |  |  |  | Ac-LESD-CH2Cl (SMILES CC(=O)N[C@@H](CC(C)C)C(=O)N[C@@H](CCC(=O)O)C(=O)N[C@@H](CO)C(=O)N[C@@H](CC(=O)O)C(=O)CCl) [N-acetyl-Leu-Glu-Ser-Asp-chloromethylketone] | IC50 of inhibition of caspase activity (rate of cleavage of 200 μM Ac-LEHD-AMC) [11]: 7.45 µM
